Laboratory results taken from FireProtDB.
“And” between values parts separate entries of the source, which are not always exact repeats. Equal entries are not always repeated.

Details: whole UniProt chain shown
[1] = Escherichia coli (strain K12), pH 7, 25 °C, Thermal, DSC, Potassium phosphate 25 mM, KCl 100 mM, reversible: yes
[2] = Escherichia coli (strain K12), pH 7, Thermal, DSC, Potassium phosphate 25 mM, KCl 100 mM, reversible: yes
[3] = Escherichia coli (strain K12), pH 3, Thermal, CD, glycine-HCl 10 mM, NaCl 0.1 M, reversible: yes
[4] = Escherichia coli (strain K12), pH 3, Thermal, CD, glycine-HCl 10 mM, reversible: yes
[5] = Escherichia coli (strain K12), pH 5.5, Thermal, CD, Sodium acetate 5 mM, KCl 50 mM, reversible: no
[6] = Escherichia coli (strain K12), pH 5.5, Thermal, CD, Sodium acetate 20 mM, reversible: yes
[7] = Escherichia coli (strain K12), pH 8, 25 °C, GdnHCl, CD, Potassium phosphate 20 mM, KCl 50 mM, reversible: yes
[8] = Escherichia coli (strain K12), pH 8, 25 °C, GdnHCl, CD, Potassium phosphate 50 mM, KCl 50 mM, reversible: yes
[9] = Escherichia coli (strain K12), pH 8, 25 °C, Urea, CD, Potassium phosphate 20 mM, KCl 50 mM, reversible: yes
[10] = Escherichia coli (strain K12), pH 7, 27 °C, Urea, Fluorescence, Potassium phosphate 50 mM, transition: 3, reversible: yes
[11] = Escherichia coli (strain K12), pH 7, 25 °C, Thermal, DSC, tetra-borate 1 mM, reversible: yes(70-95%)
[12] = Escherichia coli (strain K12), pH 7, Thermal, CD, tetra-borate 1 mM, reversible: yes(70-95%)
[13] = Escherichia coli (strain K12), pH 7, Thermal, DSC, tetra-borate 1 mM, reversible: yes(70-95%)
[14] = Escherichia coli (strain K12), pH 7.8, 25 °C, Urea, CD, Potassium phosphate 10 mM, transition: 3
[15] = Escherichia coli (strain K12), pH 7.8, 25 °C, Urea, CD, Potassium phosphate 10 mM
[16] = Escherichia coli (strain K12), pH 9.3, 25 °C, Thermal, DSC, tetra-borate 1 mM, reversible: yes(70-95%)
[17] = Escherichia coli (strain K12), pH 9.3, Thermal, CD, tetra-borate 1 mM, reversible: yes(70-95%)
[18] = Escherichia coli (strain K12), pH 9.3, Thermal, DSC, tetra-borate 1 mM, reversible: yes(70-95%)
[19] = Erythrina corallodendron, pH 7.4, Thermal, DSC, Sodium phosphate 0.02 M, NaCl 0.15 M, reversible: yes

B1: Met repressor wild type, P0A8U6 (protein)
chain: MAEWSGEYISPYAEHGKKSEQVKKITVSIPLKVLKILTDERTRRQVNNLRHATNSELLCEAFLHAFTGQPLPDDADLRKERSDEIPEAAKEIMREMGINPETWEY
For B1, which “heat capacity change of unfolding” value [1] is on record?
Its value is 2.13 kcal/mol/K.

What about the unfolding free energy [1] of the same protein?
The unfolding free energy was 7.77 kcal/mol.

And the Tm [2]?
Its Tm is 53.2 °C.

And the “heat capacity change of unfolding” value [2]?
Its value is 2.13 kcal/mol/K.

What about the “unfolding enthalpy (calorimetric)” value [2] of the same protein?
The value was 121 kcal/mol.

And the “unfolding enthalpy (van 't Hoff)” value [2]?
Its value is 131 kcal/mol.

B2: Ribonuclease HI wild type, P0A7Y4 (protein)
chain: MLKQVEIFTDGSCLGNPGPGGYGAILRYRGREKTFSAGYTRTTNNRMELMAAIVALEALKEHCEVILSTDSQYVRQGITQWIHNWKKRGWKTADKKPVKNVDLWQRLDAALGQHQIKWEWVKGHAGHPENERCDELARAAAMNPTLEDTGYQVEV
For B2, which Tm (Escherichia coli (strain K12), pH 3, Thermal, CD, Gly-HCl buffer 10 mM, NaCl 0.1 M, reversible: yes) is on record?
The Tm was 49.8 °C.

What about the Tm [3] of the same protein?
The Tm was 50.1 °C.

What about the “unfolding enthalpy (van 't Hoff)” value [3] of the same protein?
The value was 113 kcal/mol.

And the Tm [4]?
Its Tm is 49.8 °C.

And the “unfolding enthalpy (van 't Hoff)” value [4]?
The value was 98.1 kcal/mol.

What about the Tm [5] of the same protein?
The Tm was 66 °C.

And the “heat capacity change of unfolding” value [5]?
Its value is 2.7 kcal/mol/K.

And the “unfolding enthalpy (van 't Hoff)” value [5]?
The value was 120 kcal/mol.

What about the Tm [6] of the same protein?
The Tm was 52 °C.

And the “unfolding enthalpy (van 't Hoff)” value [6]?
The value was 89 kcal/mol.

What about the Tm (Escherichia coli (strain K12), pH 5.5, Thermal, CD, sodium acetate 20 mM, NaCl 0.1 M, reversible: yes) of the same protein?
Its Tm is 52 °C.

And the “denaturant midpoint (higher = more stable)” value (from here on “denaturant midpoint”) [7]?
Its value is 1.6 M.

And the unfolding free energy [7]?
Its unfolding free energy is 7.2 kcal/mol.

What about the “denaturant midpoint” value [8] of the same protein?
The value was 1.18 M.

What about the unfolding free energy [8] of the same protein?
Its unfolding free energy is 3.95 kcal/mol.

What about the “denaturant midpoint” value [9] of the same protein?
The value was 3.84 M.

What about the unfolding free energy [9] of the same protein?
The unfolding free energy was 7.4 kcal/mol.

What about the Tm (Escherichia coli (strain K12), pH 8, Thermal, CD, Potassium phosphate 20 mM, KCl 50 mM, reversible: yes) of the same protein?
The Tm was 55 °C.

B3: 3-isopropylmalate dehydrogenase wild type, P30125 (protein)
chain: MSKNYHIAVLPGDGIGPEVMTQALKVLDAVRNRFAMRITTSHYDVGGAAIDNHGQPLPPATVEGCEQADAVLFGSVGGPKWEHLPPDQQPERGALLPLRKHFKLFSNLRPAKLYQGLEAFCPLRADIAANGFDILCVRELTGGIYFGQPKGREGSGQYEKAFDTEVYHRFEIERIARIAFESARKRRHKVTSIDKANVLQSSILWREIVNEIATEYPDVELAHMYIDNATMQLIKDPSQFDVLLCSNLFGDILSDECAMITGSMGMLPSASLNEQGFGLYEPAGGSAPDIAGKNIANPIAQILSLALLLRYSLDADDAACAIERAINRALEEGIRTGDLARGAAAVSTDEMGDIIARYVAEGV
For B3, which denaturant m value [10] is on record?
The denaturant m value was 5.56 kcal/mol/M and 2.22 kcal/mol/M.

What about the unfolding free energy [10] of the same protein?
The unfolding free energy was 14.7 kcal/mol and 17.7 kcal/mol.

What about the “unfolding enthalpy (van 't Hoff)” value (Escherichia coli (strain K12), pH 7, Thermal, Fluorescence, potassium phosphate 50 mM, DTT 1 mM, transition: 3, reversible: yes) of the same protein?
Its value is 15.4 kcal/mol and 17.8 kcal/mol.

B4: Tryptophan synthase alpha chain wild type, P0A877 (protein)
chain: MERYESLFAQLKERKEGAFVPFVTLGDPGIEQSLKIIDTLIEAGADALELGIPFSDPLADGPTIQNATLRAFAAGVTPAQCFEMLALIRQKHPTIPIGLLMYANLVFNKGIDEFYAQCEKVGVDSVLVADVPVEESAPFRQAALRHNVAPIFICPPNADDDLLRQIASYGRGYTYLLSRAGVTGAENRAALPLNHLVAKLKEYNAAPPLQGFGISAPDQVKAAIDAGAAGAISGSAIVKIIEQHINEPEKMLAALKVFVQPMKAATRS
With B4 as the protein, how does the unfolding free energy (Escherichia coli (strain K12), pH 7, 25 °C, GdnHCl, CD, Potassium phosphate 0.01 M, reversible: yes) read?
Its unfolding free energy is 9.3 kcal/mol.

What about the unfolding free energy (Escherichia coli (strain K12), pH 7, 25 °C, Thermal, CD, tetra-borate 1 mM, reversible: yes(70-95%)) of the same protein?
The unfolding free energy was 6.7 kcal/mol.

What about the “unfolding enthalpy (calorimetric)” value [11] of the same protein?
The value was 23.2 kcal/mol.

And the unfolding free energy [11]?
Its unfolding free energy is 8.4 kcal/mol.

What about the unfolding free energy (Escherichia coli (strain K12), pH 7, 25.8 °C, GdnHCl, CD, Potassium phosphate 0.01 M, reversible: yes) of the same protein?
The unfolding free energy was 8.8 kcal/mol.

And the Tm [12]?
Its Tm is 61.2 °C.

What about the “heat capacity change of unfolding” value [12] of the same protein?
The value was 2.45 kcal/mol/K.

What about the “unfolding enthalpy (van 't Hoff)” value [12] of the same protein?
Its value is 19.7 kcal/mol.

What about the Tm [13] of the same protein?
Its Tm is 62.4 °C.

And the “heat capacity change of unfolding” value [13]?
Its value is 2.87 kcal/mol/K.

And the denaturant m value [14]?
Its denaturant m value is 2.9 kcal/mol/M and 1.3 kcal/mol/M.

And the unfolding free energy [14]?
Its unfolding free energy is 7.9 kcal/mol and 5.4 kcal/mol.

And the denaturant m value [15]?
The denaturant m value was 2.23 kcal/mol/M.

And the unfolding free energy [15]?
Its unfolding free energy is 5.91 kcal/mol.

What about the unfolding free energy (Escherichia coli (strain K12), pH 9.3, 25 °C, Thermal, CD, tetra-borate 1 mM, reversible: yes(70-95%)) of the same protein?
Its unfolding free energy is 3.9 kcal/mol.

And the “unfolding enthalpy (calorimetric)” value [16]?
The value was 23.2 kcal/mol.

What about the unfolding free energy [16] of the same protein?
The unfolding free energy was 5.8 kcal/mol.

What about the Tm [17] of the same protein?
Its Tm is 50.4 °C.

And the “heat capacity change of unfolding” value [17]?
The value was 2.45 kcal/mol/K.

What about the “unfolding enthalpy (van 't Hoff)” value [17] of the same protein?
The value was 19.7 kcal/mol.

And the Tm [18]?
The Tm was 54.3 °C.

And the “heat capacity change of unfolding” value [18]?
Its value is 2.87 kcal/mol/K.

B5: Lectin wild type, P16404 (protein)
chain: MATYKLCSVLALSLTLFLLILNKVNSVETISFSFSEFEPGNDNLTLQGAALITQSGVLQLTKINQNGMPAWDSTGRTLYAKPVHIWDMTTGTVASFETRFSFSIEQPYTRPLPADGLVFFMGPTKSKPAQGYGYLGIFNNSKQDNSYQTLGVEFDTFSNPWDPPQVPHIGIDVNSIRSIKTQPFQLDNGQVANVVIKYDASSKILHAVLVYPSSGAIYTIAEIVDVKQVLPEWVDVGLSGATGAQRDAAETHDVYSWSFQASLPETNDAVIPTSNHNTFAI
For B5, which Tm [19] is on record?
Its Tm is 61.7 °C.

What about the “unfolding enthalpy (calorimetric)” value [19] of the same protein?
The value was 320 kcal/mol.

What about the “unfolding enthalpy (van 't Hoff)” value [19] of the same protein?
Its value is 151 kcal/mol.
